We go through five molecules from US20170304437A1 (ALLIGATOR BIOSCIENCE, published 2017).

As usually defined, the EC50 (read off the curve) is the concentration giving half of the maximal effect.

Experiment [1] deals with T1, CD28-Fc (provided by Simon Davis, Oxford University) (human, UniProt P10747 19-152, limits assumed).
T1 construct: Gift reagent; not shown: Fc part
In words: binding ELISA, coated CD28-Fc. As to the method: (§1) The plates were washed (Wash buffer: PBS+0.05% Tween 20 (PBST) Medicago #09-9410-100) and then blocked in PBST+3% BSA (Merck, #1.12018.0100). The plates were washed again and sample or controls (serially diluted 1/3 from […]) were added to the wells. The samples were incubated for 1 h at room temperature and then washed. Detection antibody, goat-anti-human IgG Fγy-HRP (Jackson, #109-035-098) was added and the plates were subsequently developed using SuperSignal Pico Chemiluminescent substrate (Thermo #37069) and detected with an Envision reader (Perkin Elmer).
Background: In an ELISA, binding on a coated surface is turned into a signal by an enzyme label.

Experiment [2] has as its target T2, human CTLA4-Fc (Fitzgerald #30R-CD152) (human, UniProt P16410 38-152).
T2 construct: Bought reagent; also called biotinylated-CTLA4; human CTLA-4 (Fitzgerald); not shown: Fc part of the bought fusion
As to the kind of experiment: inhibition ELISA: sample titrated, pre-incubated with biotinylated CTLA4-Fc, mixture added to coated wildtype CD86-Fc (competitor), streptavidin-HRP [lower panel]. As to the method: (§2) The plates were washed (Wash buffer: PBS+0.05% Tween 20 (PBST) Medicago #09-9410-100) and then blocked in PBST+3% BSA (Merck, #1.12018.0100). The sample (CD86 mutant or wild type protein; serially diluted 1/4 from 30000 to 0.3 ng/ml) was incubated with biotinylated-CTLA4 (Fitzgerald #30R-CD152) in room temperature 1 h, the mixture was then added to the blocked wells in the ELISA plate. Detection was performed with Streptavidin-HRP (Pierce #21126) and the plates were subsequently developed using SuperSignal Pico Chemiluminescent substrate (Thermo #37069) and detected with Envision reader (Perkin Elmer).

In experiment [3] the target is T2, human CTLA4-Fc (Fitzgerald #30R-CD152). As to the kind of experiment: binding ELISA, CTLA4-Fc coated, sample titrated, anti-human IgG Fc-HRP, chemiluminescence, data normalised to % [upper panel]. On the procedure:
as §1

Experiment [4] has the same target. In words: inhibition ELISA; best molecule is 1040 by Table 8. On the procedure:
as §2

Experiment [5] has the same target. In words: binding ELISA, coated CTLA4-Fc; high end tied to 1040 by Table 7. As to the method: as §1
Experiment [6] has the same target. As to the kind of experiment: binding ELISA, coated CTLA4-Fc; low end tied to 1042 by Table 7. As to the method:
as §1

For the next experiment, the target named is T3, CD40-Fc (R&D #1493-CD) (human, UniProt P25942 21-193).
T3 construct: Bought reagent immobilised on the Biacore chip; also called human CD40; not shown: Fc part of the bought fusion
As to the kind of experiment: SPR (Biacore 3000), CD40-Fc immobilised, control antibody injected. On the procedure: CD40-Fc (R&D #1493-CD) was immobilized to the BIAcore sensorship, CMS, using conventional amine coupling. 0.5 uM Bispecific construct (957/530) was injected over immobilized CD40 for 3 minutes and the dissociation was followed for 3 minutes. 2.17 uM CTLA4-Fc (Orencia, Bristol-Mayers Squibb) was injected over the CD40-Bispecific complex for 3 minutes and the dissociation phase was followed for 3 minutes. The chip was finally regenerated using 10 mM Glycine, pH 1.7. A Biacore 3000 instrument was used according to the manufacturer's protocols.
A general note: SPR reads the build-up and loss of mass on a sensor chip optically.

Experiment [7] addresses T4, CTLA4-Fc (Orencia, Bristol-Mayers Squibb) (human, UniProt P16410 38-152).
T4 construct: Commercial drug Orencia; Biotinylated in the dual ELISA; also called soluble CTLA-4; human CTLA-4; not shown: Fc part of Orencia
As to the kind of experiment: dual ELISA: CD40-Fc coated, antibody at 0.2 ug/ml captured, biotinylated CTLA4-Fc titrated, streptavidin-HRP. As to the method: In short, 96-well flat bottom plate high binding plates (Greiner #655074) were coated with CD40-Fc (Ancell # 504-820) by incubating overnight at 4° C. The plates were washed (Wash buffer: PBS+0.05% Tween 20 (PBST) Medicago #09-9410-100) and then blocked in PBST+3% BSA (Merck, #1.12018.0100). […] The samples were incubated for 1 h at room temperature and then washed.

Experiment [8] addresses T2, human CTLA4-Fc (Fitzgerald #30R-CD152). In words: binding ELISA, CTLA4-Fc coated, sample titrated, anti-human IgG Fc-HRP, chemiluminescence. As to the method: The plates were washed (Wash buffer: PBS+0.05% Tween 20 (PBST) Medicago #09-9410-100) and then blocked in PBST+3% BSA (Merck, #1.12018.0100). […] The samples were incubated for 1 h at room temperature and then washed. Detection antibody, goat-anti-human IgG Fcγ-HRP (Jackson, #109-035-098) was added and the plates were subsequently developed using SuperSignal Pico Chemiluminescent substrate (Thermo #37069) and detected with Envision reader (Perkin Elmer).

Experiment [9] has the same target. In words: Biacore SPR, CD28/CTLA-4 Kd ratio against that of wild type. On the procedure: The CD86 mutant molecules and controls (serially diluted 1/2 100-1.5 nM) were analyzed for binding in HBs-P (GE, BR-1003-69) at a flow rate […]. The association was followed for 3 minutes and the dissociation for 10 minutes. Regeneration was performed twice using 5 mM NaOH for 30 seconds. The kinetic parameters and the affinity constants were calculated using BlAevaluation 4.1 software.

Experiment [10] has the same target. In words: binding ELISA, CD28/CTLA-4 EC50 ratio against that of wild type. As to the method:
The plates were washed (Wash buffer: PBS+0.05% Tween 20 (PBST) Medicago #09-9410-100) and then blocked in PBST+3% BSA (Merck, #1.12018.0100).
The plates were washed again and sample or controls (serially diluted 1/5 from 200-0.001 μg/ml) were added to the wells. The samples were incubated for 1 h at room temperature and then washed. Detection antibody, goat-anti-human IgG Fcγ-HRP (Jackson, #109-035-098) was added and the plates were subsequently developed using SuperSignal Pico Chemiluminescent substrate (Thermo #37069) and detected with an Envision reader

T2 sequence (P16410 38-152 limits assumed): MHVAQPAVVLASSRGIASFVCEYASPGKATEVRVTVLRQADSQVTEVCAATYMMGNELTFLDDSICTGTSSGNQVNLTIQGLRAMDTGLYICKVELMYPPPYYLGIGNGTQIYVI
T4 sequence (P16410 38-152 limits assumed): as above
T3 sequence (P25942 21-193 limits assumed): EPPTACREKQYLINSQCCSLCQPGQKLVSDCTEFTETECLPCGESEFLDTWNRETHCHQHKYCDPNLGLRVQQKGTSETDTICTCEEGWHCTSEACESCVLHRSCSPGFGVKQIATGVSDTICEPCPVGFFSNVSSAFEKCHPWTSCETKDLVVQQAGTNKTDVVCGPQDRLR

B1: CD86 mutant clone 1040, gamma2/gamma4 fusion (Fc fusion)
chain: APLKIQAYFNETADLPCQFANSQNLSLSELVVFWQDQENLVLNEVYLGKERFDSVDSKYMGRTSFDSDSWTLRLHNLQIKDKGRYQCIIHHKKPTGMINIHQMNSELSVLA
notes: Expressed as gamma2/gamma4 fusion, protein A purified; not shown: gamma2/gamma4 Fc
For B1, the binding result in experiment [1] was “no binding”. For the same molecule, in experiment [2], the “IC50 (read off the curve)” value is about 0.05 µg/mL. The “EC50 (read off the curve)” value in experiment [3] was about 0.009 µg/mL. Besides, the “fold improvement of IC50 over wild type” value in experiment [4] is over 100 fold. For the same molecule, in experiment [5], the “fold improvement of EC50 over wild type” value is 2 to 67 fold.

B2: CD86 mutant clone 1042, gamma2/gamma4 fusion (Fc fusion)
chain: APLKIQAYFNETADLPCQFANSQNLSLSELVVFWQDQENLVLNEVYLGKEIFDSVSSKYMGRTSFDSDSWTLRLHNLQIKDKGIYQCIIHHKKPSGMVKIHQMDSELSVLA
notes: as for B1
As to B2, the binding result in experiment [1] is “no binding”. In addition, the concentration for a half-maximal effect (EC50 (read off the curve)) in [3] was about 0.3 µg/mL. The “fold improvement of EC50 over wild type” value in experiment [6] is 2 to 67 fold.

B3: Antibody A2-54 (monospecific anti-CD40) (antibody, human IgG1, kappa, V domains shown)
VH: EVQLLESGGGLVQPGGSLRLSCAASGFTFSDYYMSWVRQAPGKGLEWISSISSNGIYIYYADSLKGRFTISRDNSKNTLYLQMNSLRAEDTAVYYCARAPVDYSNPSGMDVWGQGTLVTVSS
VL: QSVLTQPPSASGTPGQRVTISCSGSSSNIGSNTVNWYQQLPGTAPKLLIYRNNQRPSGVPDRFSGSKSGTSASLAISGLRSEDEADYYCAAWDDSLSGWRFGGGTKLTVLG
notes: VH-gamma1 / VL-kappa; also called control Ab
For the molecule B3, the binding result with CD40-Fc (R&D #1493-CD) is “binds”; in experiment [7], “no binding (tested: 20 µg/mL of hCTLA-4-bio)”; in experiment [8] it was “no binding (tested: log 1.2 µg/mL (about 16 µg/mL))”.

B4: CD86 mutant clone 904, gamma2/gamma4 Fc fusion (Fc fusion)
chain: LKIQAYFNETADLPCQFANSQNQSLSELIVFWQDQENLVLNEVYLGKERFDAVDSKYMGRTSFDSDSWTLRLHNLQIKDKGIYQCIIHHKKPSGMVKIHQMDSELSVLA
notes: Fusion to gamma2/gamma4 Fc, HEK293; not shown: gamma2/gamma4 Fc
For B4, the “fold of Kd binding ratio over wild type protein CD86” value in experiment [9] was over 4 fold.

B5: CD86 mutant clone 907, gamma2/gamma4 Fc fusion (Fc fusion)
chain: LKIQAYFNETADLPCQFANSQNQSLSELVVFWQDQENLVLNEVYLGKEKFDSVHSKYMGRTSFDSDSWTLRLHNLQIKDKGLYQCIIHHKKPTGMIKIHEMNSELSVLA
notes: as for B4
Consider B5, for which the “fold of EC50 binding ratio over wild-type protein CD86” value in experiment [10] was about 10 fold.
